The target in experiment [1] is amyloid beta (1-40) peptide. Nature of the experiment: solution equilibrium titration, free IgG by ELISA, GraFit; SE 0.62. A general note: In an ELISA, binding on a coated surface is turned into a signal by an enzyme label.
Another experiment addresses Aβ1-20 peptide. The experiment can be described thus: solution equilibrium titration, free IgG by ELISA, GraFit; SE 3.53.
Experiment [2] addresses ADDL fibril preparation (Aβ1-42 fibrils). The experiment can be described thus: solution equilibrium titration, free IgG by ELISA, GraFit; SE 0.12.
Experiment [3] concerns the target Aβ-derived diffusible ligands (synthetic ADDLs), soluble oligomers of amyloid β1-42. Nature of the experiment: solution equilibrium titration, free IgG by ELISA, GraFit; SE 0.042.

Aβ1-20 peptide, sequence (peptide, as listed by the source): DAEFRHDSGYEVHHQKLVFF

As to monoclonal antibody WO-2, the Kd – broadly, a measure of binding affinity in units of concentration – in experiment [1] was determined as 6.15 nM; with Aβ1-20 peptide, 19.3 nM; in experiment [2] it was 1.15 nM; in experiment [3], 0.57 nM.

The values above are taken from US20060228349A1.
